“Also recorded” adds a separate entry of the source.
How the values were obtained:
P. aeruginosa P17 = test: Mouse model of acute lung infection, P. aeruginosa P17; format: in vivo, Pseudomonas aeruginosa
Procedure: (§1) Model of acute lung infection. Female C57/BL6 mice were inoculated intranasally with 25 μl of bacterial culture containing approximately 10^7 CFU of the selected P. aeruginosa strain^36. Antibiotic treatments were administered at either 6 h pre-infection or 1 h post-infection and were administered only once. Pyocins or tobramycin dissolved in PBS were administered via intranasal administration as described above. Two different end-points were used in these experiments. In order to determine a reduction in the bacterial load of the lungs compared to the untreated controls, all mice in the experiment were culled by carbon dioxide asphyxiation at the same time; 4-6 h post infection. To determine if mice could survive infection after pyocin or tobramycin treatment, mice were monitored closely, culled by carbon dioxide asphyxiation when required as determined by a scoring system or culled at the pre-determined 24 h time point. Uninfected mice, treated with pyocins, were used as controls in the first series of experiments in order to ensure no adverse effects from pyocin treatment. These controls were stopped in later experiments in order to reduce the number of animals used, once it was clear that the pyocins were not harmful. For CFU determination, lungs were removed aseptically and kept on ice in 750 μl of PBS until homogenised. Serial 10-fold dilutions of the homogenised lung were plated on Pseudomonas selective agar (20 g peptone, 1.5 g K2HPO4, 1.5 g MgSO4·7H2O, 10 ml glycerol, 15 g agar, 0.025 g Irgasan per litre) and incubated at 37° C. for 24 h and then room temperature for 24 h before the colonies were counted.
(§2) Since strains of P. aeruginosa are phenotypically diverse, we tested the efficacy of the pyocins against three additional isolates: P. aeruginosa P17 and P. aeruginosa P5 (mucoid), both from cystic fibrosis patients and P. aeruginosa E2, an environmental isolate. Pyocin S2 was not active against P. aeruginosa P5 or P. aeruginosa E2 in vitro therefore was not used to treat these strains in vivo and similarly pyocin L1 was not used against P. aeruginosa P17. […] Lung homogenates from P. aeruginosa E2-infected AP41-treated mice contained high levels of viable bacteria, reduced only 10-fold relative to control mice (Table 1). […] Thus, pyocins show strong efficacy against diverse strains of P. aeruginosa with pyocin S5 treatment displaying the largest effect on reducing bacterial load.

P. aeruginosa E2 = test: Mouse model of acute lung infection, P. aeruginosa E2; format: in vivo, Pseudomonas aeruginosa
Procedure: as §1, §2

[1] = system: collection of diverse environmental and clinical isolates; test: Activity against a collection of diverse environmental and clinical isolates; format: cell-based, Pseudomonas aeruginosa
P8AP41T = test: Mouse model of acute lung infection, AP41 tolerant strain P8AP41T; format: in vivo, Pseudomonas aeruginosa; conditions: 3 mg ml^−1 1 h post-infection
Procedure: as §1
In order to determine if pyocin tolerance or resistance was acquired upon pyocin treatment in vivo, viable bacteria recovered from mice that survived infection to the 24 h end-point, in all experiments discussed in this work, were tested for pyocin susceptibility. From these experiments no pyocin resistant colonies were isolated. […] Importantly, sensitivity to pyocins S5 and L1 were unaffected in vitro in this pyocin AP41-tolerant strain (FIG. 3a) and this was also shown to be the case in vivo when mice were infected with P8AP41T.

P. aeruginosa P8 [2] = test: Mouse model of acute lung infection, P. aeruginosa P8; format: in vivo, Pseudomonas aeruginosa
Procedure: Study design. […] For all experiments 6 week-old, female, murine pathogen free C57/BL6 mice weighing 15-21 g were used (Charles Rivers Laboratories, UK). All mice received food and water ad libitum and were housed in groups during the experiments. Power calculations were used to predetermine sample size (n=6, for all treatment experiments). Mice were culled when required as determined by a scoring system or culled at the pre-determined 24 h time point. All mice, including outliers were included in the statistical analysis. Experiments were either carried out once only or repeated once (defined for each experiment).
as §1

P. aeruginosa P8 [3] = test: Repeated pyocin exposure followed by P. aeruginosa P8 lung infection and pyocin S5 treatment; format: in vivo, Pseudomonas aeruginosa; conditions: for survival: infected at thirteen weeks, 75 μg intranasal 1 h post-infection
Procedure: Repeated pyocin exposure. Pyocin S5 or PBS was given three times, two weeks apart with administration either via intranasal route (referred to as I.N. groups) or intraperitoneal route (referred to as I.P. groups). For I.N. administration the groups were: PBS and pyocin S5 (75 μg; 25 μl at 3 mg ml^−1). For I.P. administration the group was pyocin S5 (75 μg; 100 μl at 750 μg ml^−1). The PBS I.N. group served as the control group for the I.P. group. Thirteen weeks after the first exposure mice (n=5) were infected intranasally with P. aeruginosa P8 (I.N group infected with 1.4×10^7 CFU, I.P group infected with 5.0×10^6 CFU) and treated intranasally one hour post-infection with 75 μg of pyocin S5 or PBS, as described previously.
To ascertain if repeated exposure to pyocins gives rise to an antibody response that is detrimental to treatment, mice were repeatedly exposed to pyocin S5 to induce an antibody response and the efficacy of pyocin treatment was determined as before after infection with P. aeruginosa P8. Pyocin S5 was administered three times, with two weeks between each administration, either via the intranasal route (I.N.) or the intraperitoneal (I.P.) route. Thirteen weeks after the first treatment, mice (n=5) were infected intranasally with P. aeruginosa P8 (I.N. group infected with 1.4×10^7 CFU, I.P. group infected with 5.0×10^6 CFU) and treated intranasally 1 h post-infection with 75 μg of pyocin S5 or PBS. A control group administered only PBS intranasally prior to infection was also included. […] The levels of pyocin-S5 specific IgG and IgA were analysed for each mouse.

[4] = system: P. aeruginosa P5 (mucoid); test: Mouse model of acute lung infection, P. aeruginosa P5; format: in vivo, Pseudomonas aeruginosa
Procedure: as §1, §2

[5] = survival to 24 h, treatment 1 h post-infection

B1: Pyocin S5: S-type pyocin, SEQ ID NO: 13; binds FptA, pore-forming effector (protein, listed as Pseudomonas aeruginosa)
chain: MSNDNEVPGSMVIVAQGPDDQYAYEVPPIDSAAVAGNMFGDLIQREIYLQKNIYYPVRSIFEQGTKEKKEINKKVSDQVDGLLKQITQGKREATRQERVDVMSAVLHKMESDLEGYKKTFTKGPFIDYEKQSSLSIYEAWVKIWEKNSWEERKKYPFQQLVRDELERAVAYYKQDSLSEAVKVLRQELNKQKALKEKEDLSQLERDYRTRKANLEMKVQSELDQAGSALPPLVSPTPEQWLERATRLVTQAIADKKQLQTTNNTLIKNSPTPLEKQKAIYNGELLVDEIASLQARLVKLNAETTRRRTEAERKAAEEQALQDAIKFTADFYKEVTEKFGARTSEMARQLAEGARGKNIRSSAEAIKSFEKHKDALNKKLSLKDRQAIAKAFDSLDKQMMAKSLEKFSKGFGVVGKAIDAASLYQEFKISTETGDWKPFFVKIETLAAGAAASWLVGIAFATATATPIGILGFALVMAVTGAMIDEDLLEKANNLVISI
survival / protection (P. aeruginosa P17; pyocin 3 mg ml^−1, endpoint 24 h, infected controls culled at 4 h): survived until the 24 h endpoint | bacterial count in lung, P17 (P. aeruginosa P17; pyocin 3 mg ml^−1, treated mice survived to 24 h, no treatment 4.4 × 10^5 CFU/lung): No colonies | survival / protection (P. aeruginosa E2; pyocin 3 mg ml^−1, endpoint 24 h, infected controls culled at 5.5 h): survived until the 24 h endpoint | bacterial count in lung, E2 (P. aeruginosa E2; pyocin 3 mg ml^−1, treated mice survived to 24 h, no treatment 1.5 × 10^5 CFU/lung): No colonies | strains against which active [1]: 87% | bacterial numbers in lung homogenates (P8AP41T; 24 h (FIG. 3b)): significantly reduced bacterial numbers; also recorded: No colonies were recovered | survival (P8AP41T; endpoint 24 h, PBS controls culled 6 h post-infection (FIG. 3b)): survived until the endpoint of the experiment at 24 h | survival (P. aeruginosa P8 [2]; 30 ng ml^−1, 1 h post-infection (FIG. 2b)): survived to 24 h | bacterial counts compared to the PBS controls (P. aeruginosa P8 [2]; 30 ng ml^−1, 24 h post-infection (FIG. 2b)): significantly reduced the bacterial counts | bacteria recovered from lung (P. aeruginosa P8 [2]; 3 mg ml^−1 1 h post-infection, 24 h post-infection, six mice (FIG. 1d)): no bacteria recovered; also recorded: No colonies were recovered | treated mice from which viable bacteria were recovered (P. aeruginosa P8 [2]; 3 mg ml^−1 intranasal 1 h post-infection, culled 4.5 h post-infection (FIG. 1c)): three out of six | viable bacteria recovered from lung (P. aeruginosa P8 [2]; 3 mg ml^−1 intranasal 6 h pre-infection, 24 h post-infection (FIG. 1b)): no viable bacteria were recovered; also recorded: No colonies were recovered | viable bacteria recovered from lung homogenates (P. aeruginosa P8 [2]; C57/BL6 mice, 3 mg ml^−1 intranasal 6 h pre-infection, culled 4 h post-infection (FIG. 1a)): no viable bacteria were recovered; also recorded: No colonies were recovered | concentration at which effective in this model (P. aeruginosa P8 [2]; in vivo): lower than 1 nM | Lowest active concentration tested (P. aeruginosa P8 [2]; lowest concentration tested with which the treated mice survived to 24 h): 30 ng/mL | potency relative to tobramycin (P. aeruginosa P8 [2]; minimum effective concentrations compared): at least 100 fold | Corresponding molarity (P. aeruginosa P8 [2]; molarity of lowest active concentration tested): 535 pM | bacterial load compared with tobramycin (P. aeruginosa P8 [2]; pyocin S5 0.3 or 3 mg ml^−1 versus tobramycin 30 or 3 mg ml^−1, 1 h post-infection, culled 4.5 h (FIG. 2a)): reduced the bacterial load to a greater extent than tobramycin | bacterial counts compared with tobramycin (P. aeruginosa P8 [2]; repeat of FIG. 2a experiment (FIG. 6)): reduced bacterial counts to a greater extent than tobramycin | lowest concentration at which effective (lower limit) (P. aeruginosa P8 [2]; [5]): > 300 pg/mL | lowest concentration at which effective (upper limit) (P. aeruginosa P8 [2]; [5]): ≤ 30 ng/mL | survival (P. aeruginosa P8 [3]; I.N. pre-exposure 75 μg three times two weeks apart): survived to the 24 h time-point | bacterial load of the lungs (P. aeruginosa P8 [3]; I.N. pre-exposure 75 μg three times, 75 μg intranasal 1 h post-infection (FIG. 8a)): no viable bacteria were recovered | survival (P. aeruginosa P8 [3]; I.P. pre-exposure 75 μg three times two weeks apart): all survived to the 24 h time-point | bacterial load of the lungs (P. aeruginosa P8 [3]; I.P. pre-exposure 75 μg three times, 75 μg intranasal 1 h post-infection (FIG. 8c)): no viable bacteria were recovered | survival / protection ([4]; pyocin 3 mg ml^−1, endpoint 24 h, infected controls culled at 4.5 h): survived until the 24 h endpoint | bacterial count in lung, P5 ([4]; pyocin 3 mg ml^−1, treated mice survived to 24 h, no treatment 1.7 × 10^5 CFU/lung): No colonies

Reference: patent US12162911B2, “Pulmonary administration of pyocins for treating bacterial respiratory infections” (priority 2014, dated 2024)
